Here are results for three molecules from article PMC5007331, “YTHDF2 destabilizes m^6A-containing RNA through direct recruitment of the CCR4–NOT deadenylase complex” (Nature Communications, 2016).

First the molecules themselves.
T1: His-tagged full-length YTHDF2 (human, UniProt Q9Y5A9 1-579)
T1 sequence (looked up): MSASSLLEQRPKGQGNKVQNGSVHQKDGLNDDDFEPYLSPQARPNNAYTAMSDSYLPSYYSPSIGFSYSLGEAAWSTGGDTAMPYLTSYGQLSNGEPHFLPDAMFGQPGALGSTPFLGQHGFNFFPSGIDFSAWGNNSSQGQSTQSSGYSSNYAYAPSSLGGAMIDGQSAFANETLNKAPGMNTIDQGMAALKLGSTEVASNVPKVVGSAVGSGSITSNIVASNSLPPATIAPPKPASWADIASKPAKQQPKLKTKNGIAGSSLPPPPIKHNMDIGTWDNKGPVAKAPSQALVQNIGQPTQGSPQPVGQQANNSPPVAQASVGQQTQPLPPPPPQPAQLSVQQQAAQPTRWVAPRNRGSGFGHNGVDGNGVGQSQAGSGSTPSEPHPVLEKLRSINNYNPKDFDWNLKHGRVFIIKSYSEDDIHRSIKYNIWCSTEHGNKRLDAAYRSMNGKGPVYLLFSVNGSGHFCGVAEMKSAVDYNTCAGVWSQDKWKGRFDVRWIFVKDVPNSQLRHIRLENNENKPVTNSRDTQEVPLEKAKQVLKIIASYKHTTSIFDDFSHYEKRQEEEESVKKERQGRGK

B1: CNOT1 SH domain-GST fusion protein (aa 1842-2376) (domain or fragment, human, UniProt A5YKK6 1842-2376, looked up)
chain: YDDPPGLREKAEYLLREWVNLYHSAAAGRDSTKAFSAFVGQMHQQGILKTDDLITRFFRLCTEMCVEISYRAQAEQQHNPAANPTMIRAKCYHNLDAFVRLIALLVKHSGEATNTVTKINLLNKVLGIVVGVLLQDHDVRQSEFQQLPYHRIFIMLLLELNAPEHVLETINFQTLTAFCNTFHILRPTKAPGFVYAWLELISHRIFIARMLAHTPQQKGWPMYAQLLIDLFKYLAPFLRNVELTKPMQILYKGTLRVLLVLLHDFPEFLCDYHYGFCDVIPPNCIQLRNLILSAFPRNMRLPDPFTPNLKVDMLSEINIAPRILTNFTGVMPPQFKKDLDSYLKTRSPVTFLSDLRSNLQVSNEPGNRYNLQLINALVLYVGTQAIAHIHNKGSTPSMSTITHSAHMDIFQNLAVDLDTEGRYLFLNAIANQLRYPNSHTHYFSCTMLYLFAEANTEAIQEQITRVLLERLIVNRPHPWGLLITFIELIKNPAFKFWNHEFVHCAPEIEKLFQSVAQCCMGQKQAQQVMEGTGAS
B2: His-tagged YTHDF2-N (YTHDF2-1-400) (domain or fragment, human, UniProt Q9Y5A9 1-400, looked up)
chain: MSASSLLEQRPKGQGNKVQNGSVHQKDGLNDDDFEPYLSPQARPNNAYTAMSDSYLPSYYSPSIGFSYSLGEAAWSTGGDTAMPYLTSYGQLSNGEPHFLPDAMFGQPGALGSTPFLGQHGFNFFPSGIDFSAWGNNSSQGQSTQSSGYSSNYAYAPSSLGGAMIDGQSAFANETLNKAPGMNTIDQGMAALKLGSTEVASNVPKVVGSAVGSGSITSNIVASNSLPPATIAPPKPASWADIASKPAKQQPKLKTKNGIAGSSLPPPPIKHNMDIGTWDNKGPVAKAPSQALVQNIGQPTQGSPQPVGQQANNSPPVAQASVGQQTQPLPPPPPQPAQLSVQQQAAQPTRWVAPRNRGSGFGHNGVDGNGVGQSQAGSGSTPSEPHPVLEKLRSINNYNP
notes: YTHDF2, human, N-terminal region, aa 1-400; Cloned into pET-28a; The YTHDF2-N of the tethering plasmids is another construct (aa 1-389); source: E. coli, purified recombinant
B3: His-tagged YTHDF2-101-200 (domain or fragment, human, UniProt Q9Y5A9 101-200, looked up)
chain: PDAMFGQPGALGSTPFLGQHGFNFFPSGIDFSAWGNNSSQGQSTQSSGYSSNYAYAPSSLGGAMIDGQSAFANETLNKAPGMNTIDQGMAALKLGSTEVA
notes: Cloned into pET-28a; source: E. coli, purified recombinant

Assay [1] concerns the target T1, His-tagged full-length YTHDF2. Put plainly: pull-down; GST pull-down: 40 pmol YTHDF2 fragment with 40 pmol GST or GST-CNOT1 (aa 1842-2376) on glutathione Sepharose-4B; 20 mM HEPES pH 7.4, 200 mM NaCl, 0.1% Tween-20; 2 h at 4 °C; SDS-PAGE and Coomassie Blue staining. The settings on record: both partners purified.
In assay [2] the target is B1. Described as above. The settings on record: both partners purified.

Regarding B1, the binding result in assay [1] is reported as “binds”.

Turning to B2, in assay [2], the binding result is “binds”.

Turning to B3, the binding result in assay [2] is reported as “binds”.
